Reference: paper PMC12519566, “A TOM1 variant impairs interaction with TOLLIP, autophagosome-lysosome fusion and regulation of innate immunity” (Disease Models & Mechanisms, 2025)

Columns and labels:
[1] = target: T1, TOLLIP (Homo sapiens, UniProt Q9H0E2); assay: lipid-protein overlay; liposome co-sedimentation; type: binding; settings: without TOM1; overlay: PtdIns3P on PVDF, 60 nM GST-TOLLIP, pH 8.0, 4 C; sedimentation: 2.5 uM TOLLIP, DOPC/DOPE liposomes with 3% PtdIns3P
T1 construct: human TOLLIP cDNA in pGEX6P1, expressed in E. coli Rosetta; GST-TOLLIP in the lipid overlay, TOLLIP in liposome co-sedimentation

[2] = target: GST; assay: cross-linking; BS3 (0.25-5 mM), 30 min at room temperature; TOLLIP and TOM1 preincubated for 30 min before BS3; SDS-PAGE
[3] = target: GST; assay: cross-linking; glutaraldehyde dilution series (0.01-1%), 5 min at 37°C; SDS-PAGE
[4] = target: T2, TOM1 G307D, MYC-BirA fusion (BioID bait) (UniProt O60784 1-492, G307D); assay: proximity labelling; BioID with mass spectrometry; Flp-In T-REx 293 cells induced with 2 µg/ml doxycycline and 50 µM biotin for 24 h; Strep-Tactin sepharose; three biological replicates; settings: partners not purified
T2 construct: also called TOM1 G307D variant; source: inducible Flp-In T-REx 293 cell line, induced with doxycycline and biotin, in cells

## CCCCCCCCCCCCCCCC(=O)OC[C@H](COP(=O)(O)O[C@@H]1[C@H](O)[C@H](OP(=O)(O)O)[C@@H](O)[C@H](O)[C@H]1O)OC(=O)CCCCCCCCCCCCCCC [dipalmitoyl PtdIns3P]
[1]
  lipid-protein overlay; liposome co-sedimentation: As expected, TOM1 WT significantly reduced TOLLIP binding to PtdIns3P (Fig. 2B).

## GST (natural protein)
[2]
  stoichiometry N: 2
[3]
  stoichiometry N: 2

B1: myosin VI (natural protein, human (endogenous in Flp-In T-REx 293), UniProt Q9UM54 1-1294, looked up)
chain: MEDGKPVWAPHPTDGFQMGNIVDIGPDSLTIEPLNQKGKTFLALINQVFPAEEDSKKDVEDNCSLMYLNEATLLHNIKVRYSKDRIYTYVANILIAVNPYFDIPKIYSSEAIKSYQGKSLGTRPPHVFAIADKAFRDMKVLKMSQSIIVSGESGAGKTENTKFVLRYLTESYGTGQDIDDRIVEANPLLEAFGNAKTVRNNNSSRFGKFVEIHFNEKSSVVGGFVSHYLLEKSRICVQGKEERNYHIFYRLCAGASEDIREKLHLSSPDNFRYLNRGCTRYFANKETDKQILQNRKSPEYLKAGSMKDPLLDDHGDFIRMCTAMKKIGLDDEEKLDLFRVVAGVLHLGNIDFEEAGSTSGGCNLKNKSAQSLEYCAELLGLDQDDLRVSLTTRVMLTTAGGTKGTVIKVPLKVEQANNARDALAKTVYSHLFDHVVNRVNQCFPFETSSYFIGVLDIAGFEYFEHNSFEQFCINYCNEKLQQFFNERILKEEQELYQKEGLGVNEVHYVDNQDCIDLIEAKLVGILDILDEENRLPQPSDQHFTSAVHQKHKDHFRLTIPRKSKLAVHRNIRDDEGFIIRHFAGAVCYETTQFVEKNNDALHMSLESLICESRDKFIRELFESSTNNNKDTKQKAGKLSFISVGNKFKTQLNLLLDKLRSTGASFIRCIKPNLKMTSHHFEGAQILSQLQCSGMVSVLDLMQGGYPSRASFHELYNMYKKYMPDKLARLDPRLFCKALFKALGLNENDYKFGLTKVFFRPGKFAEFDQIMKSDPDHLAELVKRVNHWLTCSRWKKVQWCSLSVIKLKNKIKYRAEACIKMQKTIRMWLCKRRHKPRIDGLVKVGTLKKRLDKFNEVVSVLKDGKPEMNKQIKNLEISIDTLMAKIKSTMMTQEQIQKEYDALVKSSEELLSALQKKKQQEEEAERLRRIQEEMEKERKRREEDEKRRRKEEEERRMKLEMEAKRKQEEEERKKREDDEKRIQAEVEAQLARQKEEESQQQAVLEQERRDRELALRIAQSEAELISDEAQADLALRRSLDSYPVSKNDGTRPKMTPEQMAKEMSEFLSRGPAVLATKAAAGTKKYDLSKWKYAELRDTINTSCDIELLAACREEFHRRLKVYHAWKSKNKKRNTETEQRAPKSVTDYDFAPFLNNSPQQNPAAQIPARQREIEMNRQQRFFRIPFIRPADQYKDPQSKKKGWWYAHFDGPWIARQMELHPDKPPILLVAGKDDMEMCELNLEETGLTRKRGAEILPRQFEEIWERCGGIQYLQNAIESRQARPTYATAMLQSLLK
notes: myosin VI, endogenous protein found by proximity labeling mass spectrometry; source: endogenous, Flp-In T-REx 293 cells
[4]
  interaction relative to that of TOM1 WT with myosin VI: 69%
